Broadly, the Kd is the constant that tells how readily two partners part at equilibrium.

B1: AL2p-44 (antibody, IgG1, V domains shown)
VH: QVQLVQSGAEVKKPGSSVKVSCKASGYAFSSHWMNWVRQAPGQGLEWMGRIYPGGGDTNYARKFRGRVTITADESTSTAYMELSSLRSEDTAVYYCARLLRNQPGASYAMDYWGQGTLVTVSS
VL: GVVMTQTPLSLSVTPGQPASISCRTSRSLVHSNRYTYLHWYLQKPGQSPQLLIYKVSNRRSGVPDRFSGSGSGTDFTLKISRVEAEDVGVYYCSQSTRVPYTFGQGTKLEIK
notes: Fab and IgG formats under one id
B2: AL2p-43 (antibody, V domains shown)
VH: B1 VH
VL: B1 VL with T25S
notes: as for B1
B3: AL2p-45 (antibody, V domains shown)
VH: B1 VH with H32D, G55E, R65Q, Q103K, A106E
VL: B1 VL with G1D, R27Q, R34A, R60V
notes: as for B1
B4: AL2p-46 (antibody, V domains shown)
VH: B1 VH with H32D, G55E, R65Q, Q103K, A106E
VL: B1 VL with G1D, R27Q, R34Q, R60V
notes: as for B1
B5: AL2p-38 (antibody, V domains shown)
VH: B1 VH with R62Q
VL: B1 VL with T25S
notes: as for B1
B6: AL2p-39 (antibody, V domains shown)
VH: B1 VH with R62Q
VL: B1 VL with T25S, R34Q
notes: as for B1
B7: AL2p-40 (antibody, IgG1, V domains shown)
VH: B1 VH with R62Q
VL: B1 VL
notes: as for B1
B8: AL2p-42 (antibody, V domains shown)
VH: B1 VH with G55E, R62Q
VL: B1 VL
notes: as for B1
B9: AL2p-41 (antibody, IgG1, V domains shown)
VH: B1 VH with G55E, R62Q
VL: B1 VL with T25S, R34Q
notes: as for B1
B10: AL2p-28 (antibody, V domains shown)
VH: B1 VH with G55V, R62Q, R65Q, A106E
VL: B1 VL with R27Q, R34G, R60V
notes: as for B1
B11: AL2p-30 (antibody, V domains shown)
VH: B1 VH with H32Q, G55D, R62W, R65Q, A106E
VL: B1 VL with T25S, R27S, R34G, R60K
notes: as for B1
B12: AL2p-33 (antibody, V domains shown)
VH: B1 VH with Q1E, H32S, G55D, R62Q, R65Q, A106E
VL: B1 VL with T5A, R27Q, R34G, R60V
notes: as for B1
B13: AL2p-32 (antibody, V domains shown)
VH: B1 VH with H32E, G55D, R62Q, R65Q, A106E
VL: B1 VL with T25S, R27Q, R34G
notes: as for B1

Numbering of substitutions follows the chain as printed.

For one experiment, the target named is T1, human TREM2 expressed on cells (human, UniProt Q9NZC2 19-230).
T1 construct: BW5147.G.1.4 cells stably expressing human TREM2 together with Dap12, or endogenous TREM2 of primary human myeloid cells; also called huT2 BW; hTREM2 expressing cell line
T1 sequence: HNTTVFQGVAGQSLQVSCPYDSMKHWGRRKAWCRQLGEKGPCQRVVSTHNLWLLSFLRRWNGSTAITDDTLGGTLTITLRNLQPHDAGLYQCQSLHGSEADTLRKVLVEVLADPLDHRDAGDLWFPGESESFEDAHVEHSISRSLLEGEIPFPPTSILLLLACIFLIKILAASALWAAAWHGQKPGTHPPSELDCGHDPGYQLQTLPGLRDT
In words: FACS, human DCs. From the text: (§1) To examine cell binding of affinity matured anti-TREM2 antibodies, both primary human monocyte derived dendritic cells and recombinant, human TREM2 expressing cells were utilized. For the latter, BW5147.G.1.4 (ATCC® TIB48™) and HEK293T cells stably expressing human TREM2 together with Dap12 using viral infection were established. For primary human monocyte derived dendritic cells, human monocytes were isolated from whole blood using RosetteSep Human monocyte enrichment cocktail (Stemcell technologies) and Ficoll centrifugation per manufacturer protocols. After lysing red blood cells with ACK lysing buffer, monocytes were resuspended in complete media (RPMI, 10% FBS, Pen/Strep, L-glutamine, HEPES, non-essential amino acid, Sodium pyruvate) with 100 ng/ml human GM-CSF (hu-GMCSF) and, human IL-4 (hu-IL-4) to differentiate dendritic cells for 6 days.
(§2) Cells were harvested by trypsinization (Hek293T) or scraping (BW and dendritic cells), washed in PBS, counted and plated on 96-well U bottom plates at […] cells/well. The plates were spun at 1,400 rpm for 3 minutes and primary TREM2 or control antibodies were added in FACS buffer (PBS+2% FBS) and incubated on ice for one hour. Cells were subsequently centrifuged as before and washed thrice with FACS buffer. Cells were then incubated with anti-human PE conjugated secondary antibody (BD Biosciences) in FACS buffer for 30 minutes on ice. Cells were again washed thrice with FACS buffer and analyzed on a BD FACS Canto or an Intellicyt Flow Cytometer. Binding was measured as mean fluorescence intensity in the APC channel.
(In flow cytometry, cells or beads pass a laser one at a time.)
In turn, B1 had an MFI of 1470 MFI.
For B2, the MFI was found to be 1040 MFI.
Regarding B3, the MFI amounted to 318 MFI.
Still for that read-out and setting: the value for B4 was 187 MFI; that for B5 was 499 MFI.
Same read-out and setting: the value for B6 was 590 MFI; that for B7 was 547 MFI; that for B8 was 662 MFI.
Consider B9, for which the MFI came to 534 MFI.

For the next experiment, the target named is T1, human TREM2 expressed on cells. In words: FACS, hTREM2 BW cells.
Source text: as §1, §2
Turning to B10, binding was put at a Kd of 2.2 nM.
B1 came in with a Kd of 4.18 nM.
B11 gave a Kd of 1.2 nM.
Same read-out and setting: the value for B2 was 5.01 nM; that for B3 was 1.54 nM; that for B4 was 1.33 nM.
Molecule B5 yielded an equilibrium dissociation constant (Kd) of 4.79 nM.
As for B12, the affinity, expressed as Kd, was 4.5 nM.
Take B13: binding was characterised by a dissociation constant (Kd) of 2.8 nM.
In turn, B6 yielded a Kd of 1.53 nM.
Take B7: the Kd is 2.27 nM.
Take B8: the Kd came to 1.91 nM.
Take B9: the affinity, expressed as Kd, was 1.31 nM.

A further experiment has as its target T2, cynomolgus monkey TREM2 Fc fusion (entire TREM2 ECD; only one Fc arm fused to TREM2) (cynomolgus monkey, UniProt Q9NZC2 19-174 (human entry)).
T2 construct: also called cyno TREM2-Fc
T2 chain: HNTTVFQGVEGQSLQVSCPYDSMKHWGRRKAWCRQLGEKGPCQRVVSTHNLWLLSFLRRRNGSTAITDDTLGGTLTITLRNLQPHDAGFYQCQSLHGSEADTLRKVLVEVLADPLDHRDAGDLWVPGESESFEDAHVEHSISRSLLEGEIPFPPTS
Description: BLI, Fab, monovalent.
As for B10, the affinity, expressed as Kd, was 7.91 nM.
The same measure, in the same setting: the value for B1 was 0.271 nM; that for B11 was 5.66 nM.
The same measure, in the same setting: the value for B2 was 0.36 nM.
Same read-out and setting: the value for B3 was 20.9 nM.
In the case of B4, binding was characterised by a dissociation constant (Kd) of 16.1 nM.
B5 yielded a Kd of 0.37 nM.
Regarding B12, the affinity, expressed as Kd, was 0.884 nM.
With B13, binding was characterised by a dissociation constant (Kd) of 34.8 nM.
On the same count and under the same terms, the value for B6 was 0.346 nM.
Consider B7, for which the affinity, expressed as Kd, was 0.37 nM.
Same read-out and setting: the value for B8 was 0.312 nM; that for B9 was 0.352 nM.

In a further experiment the target is T3, human TREM2 Fc fusion (entire TREM2 ECD; only one Fc arm fused to TREM2) (human, UniProt Q9NZC2 19-174).
T3 construct: also called huTREM2-Fc; recombinant hTREM2
T3 sequence: T2 chain with E10A, R60W, F89L, V125F
Description: BLI, Fab, monovalent. For orientation: BLI is a label-free optical method that tracks binding on a fibre tip over time.
Regarding B10, binding was put at a Kd of 7.6 nM.
The same measure, in the same setting: the value for B1 was 0.41 nM.
Consider B11, for which the affinity, expressed as Kd, was 6.5 nM.
In turn, B2 showed a Kd of 0.493 nM.
The molecule B3 yielded a Kd of 17.8 nM.
As to B4, the affinity, expressed as Kd, was 13 nM.
As to B5, the Kd was found to be 0.623 nM.
On the same count and under the same terms, the value for B12 was 10.3 nM; that for B13 was 36 nM; that for B6 was 0.631 nM.
The same measure, in the same setting: the value for B7 was 0.602 nM.
In turn, B8 showed a Kd of 0.829 nM.
Consider B9, for which the Kd amounted to 0.724 nM.

The target of another experiment is T4, human TREM2/DAP12 fusion protein (human, UniProt O43914 41-113, limits assumed). In words: cell-based or functional assay.
Consider B10, for which the “Luciferase activation plate bound 33 nM IgG, FOC” value was found to be 9.27 FOC and the “Luciferase activation soluble 10 nM IgG, FOC” value amounted to 2.14 FOC.
Consider B11, for which the “Luciferase activation plate bound 33 nM IgG, FOC” value is 15.8 FOC and the “Luciferase activation soluble 10 nM IgG, FOC” value stood at 2.31 FOC.
In the same order, the values of B12 are 3.21 FOC and 1.72 FOC.
With B13, the “Luciferase activation plate bound 33 nM IgG, FOC” value worked out at 4.9 FOC and the “Luciferase activation soluble 10 nM IgG, FOC” value was found to be 1.47 FOC.

The target of another experiment is T4, human TREM2/DAP12 fusion protein. Description: cell-based or functional assay. The source holds these as a separate data set.
On to B1, for which the “BW Luc assay plate bound 7.3 nM IgG, FOC” value came out at 7.17 FOC and the “BW Luc assay soluble 7.3 nM IgG, FOC” value was determined as 11.5 FOC.
As for B2, the “BW Luc assay plate bound 7.3 nM IgG, FOC” value was determined as 5.41 FOC and the “BW Luc assay soluble 7.3 nM IgG, FOC” value is 8.84 FOC.
With B3, the “BW Luc assay plate bound 7.3 nM IgG, FOC” value was 2.29 FOC and the “BW Luc assay soluble 7.3 nM IgG, FOC” value worked out at 2.38 FOC.
For B4, in that order: 1.64 FOC and 2.98 FOC.
For B5, the “BW Luc assay plate bound 7.3 nM IgG, FOC” value worked out at 4.47 FOC and the “BW Luc assay soluble 7.3 nM IgG, FOC” value was found to be 4.98 FOC.
In the same order, the values of B6 are 8.12 FOC and 3.81 FOC.
For B7, in that order: 8.49 FOC and 9.92 FOC.
On to B8, for which the “BW Luc assay plate bound 7.3 nM IgG, FOC” value was determined as 6.52 FOC and the “BW Luc assay soluble 7.3 nM IgG, FOC” value is 5.95 FOC.
For B9, in that order: 7.61 FOC and 2.92 FOC.

The target in another experiment is T1, human TREM2 expressed on cells. In words: cell-based or functional assay.
For the molecule B1, the “DC viability (AUC)” value was 750000 AUC and the “Mac viability (AUC)” value was 74700 AUC.
Turning to B3, the “DC viability (AUC)” value is 543000 AUC and the “Mac viability (AUC)” value amounted to 3680 AUC.
For B4, in that order: 597000 AUC and 6040 AUC.
On to B5, for which the “DC viability (AUC)” value worked out at 786000 AUC and the “Mac viability (AUC)” value was 39000 AUC.
For B6, in that order: 851000 AUC and 66900 AUC.
As for B7, the “DC viability (AUC)” value was determined as 825000 AUC and the “Mac viability (AUC)” value worked out at 63200 AUC.
Take B8: the “DC viability (AUC)” value was 781000 AUC and the “Mac viability (AUC)” value was found to be 57900 AUC.
B9: the “DC viability (AUC)” value is 860000 AUC and the “Mac viability (AUC)” value was determined as 80700 AUC.

The next experiment deals with T3, human TREM2 Fc fusion (entire TREM2 …). Description: BLI, IgG, avid. The protocol:
Briefly, IgGs were loaded on-line onto AHQ sensors, Sensors were equilibrated off-line in assay buffer for 30 minutes and then monitored on-line for 60 seconds for baseline establishment. For avid binding measurement, sensors with loaded IgGs were exposed to 100 nM antigen (human or cynomolgus monkey TREM2 Fe fusion using the entire TREM2 ECD; only one Fc arm was fused to TREM2) for 3 minutes, afterwards they were transferred to assay buffer for 3 minutes for off-rate measurement. Monovalent binding measurements were obtained by loading human TREM2 Fc fusion antigens to AHQ sensor and followed by exposure to 100 nM TREM2 antibody Fab. Kinetics data were fit using a 1:1 binding model in the data analysis software provided by ForteBio. Assay was run at room temperature (25° C.).
For B10, binding was put at a Kd of 0.417 nM.
Same read-out and setting: the value for B11 was 0.377 nM; that for B12 was 0.889 nM.
Consider B13, for which the Kd was 1.12 nM.

The values above are taken from US20200317776A1 (published 2020).
